As a reminder, the stoichiometry N is the number of molecules, sites or subunits per partner or assembly.

Stoichiometry N data for 1 substance are collected here from PMC7949104.

This assay has as its target E5 C77S mutant. Kind of assay: SEC; analytical gel filtration, Superdex 75 10/300 GL, 0.5 ml/min, 50 mM phosphate buffer with 150 mM NaCl, in the presence of a reducing agent; mass from protein standards. (In general: Size exclusion chromatography separates by hydrodynamic size, large species first.)

On to E5 C77S mutant (enzyme), for which the stoichiometry N is 6.
